Measurements: PMC1616947 (Nucleic Acids Research, 2006)

Target: the molecule itself
Assay: SEC + AUC

B1: MutLΔC20 deletion mutant (domain or fragment, Escherichia coli, UniProt P23367 1-595, looked up)
chain: MPIQVLPPQLANQIAAGEVVERPASVVKELVENSLDAGATRIDIDIERGGAKLIRIRDNGCGIKKDELALALARHATSKIASLDDLEAIISLGFRGEALASISSVSRLTLTSRTAEQQEAWQAYAEGRDMNVTVKPAAHPVGTTLEVLDLFYNTPARRKFLRTEKTEFNHIDEIIRRIALARFDVTINLSHNGKIVRQYRAVPEGGQKERRLGAICGTAFLEQALAIEWQHGDLTLRGWVADPNHTTPALAEIQYCYVNGRMMRDRLINHAIRQACEDKLGADQQPAFVLYLEIDPHQVDVNVHPAKHEVRFHQSRLVHDFIYQGVLSVLQQQLETPLPLDDEPQPAPRSIPENRVAAGRNHFAEPAAREPVAPRYTPAPASGSRPAAPWPNAQPGYQKQQGEVYRQLLQTPAPMQKLKAPEPQEPALAANSQSFGRVLTIVHSDCALLERDGNISLLSLPVAERWLRQAQLTPGEAPVCAQPLLIPLRLKVSAEEKSALEKAQSALAELGIDFQSDAQHVTIRAVPLPLRQQNLQILIPELIGYLAKQSVFEPGNIAQWIARNLMSEHAQWSMAQAITLLADVERLCPQLVKTP
stoichiometry N: 2
